# From the supplement of paper PMC9112550, “Optimization of the antimicrobial peptide Bac7 by deep mutational scanning” (BMC Biology, 2022)
# Tested on: Escherichia coli TOP10
# Assay: shrunken log2 fold change of peptide-encoding DNA abundance (4.5 h post-induction vs induction); higher = less antimicrobial activity (less host growth inhibition)
# Conditions: time post-induction: 4.5 h; library: site-saturation at positions 5, 18, 19, 20
# 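Further: peptides expressed intracellularly from a pBAD plasmid library in pooled LB shake-flask culture, induced with 0.3% L-arabinose, DNA abundance read by NGS, three biological replicates, DESeq2 with apeglm shrinkage.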
row,Sequence,shrunken log2 fold change
1,RRIRWRPPRLPRPRPRPLSGPRP,0.34
2,RRIRVRPPRLPRPRPRPPSGPRP,0.208
3,RRIRCRPPRLPRPRPRPNEQPRP,0.256
4,RRIRIRPPRLPRPRPRPQTYPRP,-0.636
5,RRIRGRPPRLPRPRPRPIRWPRP,0.577
6,RRIRIRPPRLPRPRPRPYLPPRP,-0.206
7,RRIRKRPPRLPRPRPRPTSHPRP,0.37
8,RRIRQRPPRLPRPRPRPWAEPRP,-0.0482
9,RRIRLRPPRLPRPRPRPEFWPRP,0.417
10,RRIRFRPPRLPRPRPRPKVWPRP,-0.249
11,RRIRHRPPRLPRPRPRPHPHPRP,-0.19
12,RRIRRRPPRLPRPRPRPRRCPRP,0.615
13,RRIRYRPPRLPRPRPRPKHFPRP,-0.327
14,RRIRQRPPRLPRPRPRPMTMPRP,-0.243
15,RRIRIRPPRLPRPRPRPQCWPRP,0.203
16,RRIRPRPPRLPRPRPRPADCPRP,0.273
17,RRIRQRPPRLPRPRPRPSNAPRP,-0.198
18,RRIRWRPPRLPRPRPRPRHVPRP,-0.0116
19,RRIRKRPPRLPRPRPRPWNKPRP,-0.129
20,RRIRMRPPRLPRPRPRPQRNPRP,0.209
21,RRIRVRPPRLPRPRPRPKWEPRP,0.00343
22,RRIRQRPPRLPRPRPRPVVPPRP,-0.0392
23,RRIRLRPPRLPRPRPRPAQWPRP,-0.0397
24,RRIRLRPPRLPRPRPRPVNDPRP,-0.52
25,RRIRRRPPRLPRPRPRPNEMPRP,0.245

row,Sequence,shrunken log2 fold change
1,RRIRKRPPRLPRPRPRPVYEPRP,-0.115
2,RRIRCRPPRLPRPRPRPYARPRP,-0.746
3,RRIRDRPPRLPRPRPRPRHPPRP,0.0563
4,RRIRVRPPRLPRPRPRPCGSPRP,-0.225
5,RRIRFRPPRLPRPRPRPIPMPRP,-0.428
6,RRIRHRPPRLPRPRPRPMMSPRP,0.0372
7,RRIRIRPPRLPRPRPRPWRRPRP,1.46
8,RRIRYRPPRLPRPRPRPGCSPRP,-0.214
9,RRIRVRPPRLPRPRPRPRMVPRP,-0.0168
10,RRIRIRPPRLPRPRPRPPKWPRP,-0.00369
11,RRIRPRPPRLPRPRPRPWCPPRP,2.07
12,RRIRFRPPRLPRPRPRPDTTPRP,0.00968
13,RRIRWRPPRLPRPRPRPQLIPRP,-0.153
14,RRIRPRPPRLPRPRPRPNNDPRP,-0.544
15,RRIRRRPPRLPRPRPRPKGAPRP,0.28
16,RRIRSRPPRLPRPRPRPDLGPRP,0.0168
17,RRIRMRPPRLPRPRPRPEWKPRP,0.0511
18,RRIRYRPPRLPRPRPRPVLMPRP,-0.83
19,RRIRGRPPRLPRPRPRPYALPRP,0.0375
20,RRIRPRPPRLPRPRPRPLAYPRP,-0.074
21,RRIRHRPPRLPRPRPRPSISPRP,-0.727
22,RRIRPRPPRLPRPRPRPQKEPRP,0.0431
23,RRIRVRPPRLPRPRPRPMITPRP,0.104
24,RRIRRRPPRLPRPRPRPQLRPRP,0.213
25,RRIRCRPPRLPRPRPRPYKTPRP,-0.404

row,Sequence,shrunken log2 fold change
1,RRIRERPPRLPRPRPRPQIVPRP,-0.108
2,RRIRARPPRLPRPRPRPQALPRP,0.274
3,RRIRQRPPRLPRPRPRPSRYPRP,-0.00452
4,RRIRWRPPRLPRPRPRPTLNPRP,0.139
5,RRIRSRPPRLPRPRPRPANVPRP,0.218
6,RRIRKRPPRLPRPRPRPVMTPRP,0.0351
7,RRIRMRPPRLPRPRPRPQQGPRP,-0.121
8,RRIRVRPPRLPRPRPRPPCDPRP,0.52
9,RRIRRRPPRLPRPRPRPSLKPRP,0.108
10,RRIRERPPRLPRPRPRPKQRPRP,0.235
11,RRIRYRPPRLPRPRPRPPFGPRP,-0.386
12,RRIRVRPPRLPRPRPRPSRRPRP,0.157
13,RRIRQRPPRLPRPRPRPFIPPRP,-0.395
14,RRIRARPPRLPRPRPRPFEDPRP,0.0795
15,RRIRSRPPRLPRPRPRPNHVPRP,-0.803
16,RRIRKRPPRLPRPRPRPYMYPRP,-0.445
17,RRIRVRPPRLPRPRPRPSTLPRP,-0.166
18,RRIRKRPPRLPRPRPRPFFKPRP,0.0178
19,RRIRARPPRLPRPRPRPTCTPRP,0.764
20,RRIRNRPPRLPRPRPRPRIYPRP,-0.0955
21,RRIRMRPPRLPRPRPRPDKSPRP,0.283
22,RRIRARPPRLPRPRPRPHMYPRP,-0.149
23,RRIRIRPPRLPRPRPRPYTVPRP,-1.32
24,RRIRGRPPRLPRPRPRPAKKPRP,0.00559
25,RRIRWRPPRLPRPRPRPVDNPRP,-0.018

row,Sequence,shrunken log2 fold change
1,RRIRIRPPRLPRPRPRPKVVPRP,-0.00466
2,RRIRPRPPRLPRPRPRPIYCPRP,-0.102
3,RRIRNRPPRLPRPRPRPRSEPRP,0.139
4,RRIRTRPPRLPRPRPRPFNHPRP,0.00676
5,RRIRGRPPRLPRPRPRPRLQPRP,0.759
6,RRIRARPPRLPRPRPRPWCQPRP,-0.031
7,RRIRVRPPRLPRPRPRPCSCPRP,0.141
8,RRIRPRPPRLPRPRPRPGEYPRP,-0.207
9,RRIRARPPRLPRPRPRPSFHPRP,-0.215
10,RRIRQRPPRLPRPRPRPGWPPRP,0.514
11,RRIRVRPPRLPRPRPRPPVEPRP,0.424
12,RRIRQRPPRLPRPRPRPNMQPRP,-0.619
13,RRIRSRPPRLPRPRPRPTGPPRP,-0.0769
14,RRIRKRPPRLPRPRPRPCAKPRP,0.54
15,RRIRSRPPRLPRPRPRPCAWPRP,-0.035
16,RRIRGRPPRLPRPRPRPSTSPRP,0.315
17,RRIRYRPPRLPRPRPRPFHYPRP,-0.21
18,RRIRERPPRLPRPRPRPTCMPRP,-0.0554
19,RRIRQRPPRLPRPRPRPYWHPRP,-0.317
20,RRIRSRPPRLPRPRPRPTCCPRP,0.164
21,RRIRIRPPRLPRPRPRPMCNPRP,-0.0808
22,RRIRKRPPRLPRPRPRPFLKPRP,0.0443
23,RRIRHRPPRLPRPRPRPEWDPRP,0.00396
24,RRIRARPPRLPRPRPRPSANPRP,0.344
25,RRIRPRPPRLPRPRPRPLPSPRP,0.0677

row,Sequence,shrunken log2 fold change
1,RRIRGRPPRLPRPRPRPDHKPRP,-0.154
2,RRIRLRPPRLPRPRPRPVQSPRP,-0.031
3,RRIRCRPPRLPRPRPRPTADPRP,0.363
4,RRIRFRPPRLPRPRPRPFLRPRP,-0.313
5,RRIRSRPPRLPRPRPRPSTCPRP,0.0296
6,RRIRNRPPRLPRPRPRPAHWPRP,0.142
7,RRIRSRPPRLPRPRPRPWLFPRP,-0.183
8,RRIRHRPPRLPRPRPRPCMAPRP,-0.213
9,RRIRQRPPRLPRPRPRPEDQPRP,0.0199
10,RRIRKRPPRLPRPRPRPEAGPRP,1.17
11,RRIRDRPPRLPRPRPRPVCKPRP,-0.0246
12,RRIRERPPRLPRPRPRPEDCPRP,-0.104
13,RRIRDRPPRLPRPRPRPHCAPRP,0.143
14,RRIRHRPPRLPRPRPRPLCPPRP,-0.138
15,RRIRERPPRLPRPRPRPDSGPRP,-0.533
16,RRIRDRPPRLPRPRPRPRIHPRP,-0.563
17,RRIRKRPPRLPRPRPRPGCVPRP,1.16
18,RRIRKRPPRLPRPRPRPIFNPRP,-0.0554
19,RRIRPRPPRLPRPRPRPLITPRP,-0.357
20,RRIRMRPPRLPRPRPRPKNVPRP,-0.16
21,RRIRMRPPRLPRPRPRPKEDPRP,1.82
22,RRIRCRPPRLPRPRPRPSLPPRP,-0.0253
23,RRIRVRPPRLPRPRPRPDREPRP,0.0132
24,RRIRFRPPRLPRPRPRPTGFPRP,0.0467
25,RRIRSRPPRLPRPRPRPMQRPRP,0.281
